Values joined by “and” are separate entries in the source; they are usually repeats but may differ in a detail not shown here. Equal entries are not always repeated. “Also recorded” adds a separate entry of the source. Where two headings read alike, the source gives them in different places.
What was measured:
[1] = test system: sulfated N-terminal peptide of CCR5; experiment: ITC analysis of BA8 Fab (wild type and mutants) with the sulfated peptide; assay type: binding; conditions: 10 μM Fab in cell, 100 μM sulfated peptide in syringe, PBS, 25 °C
Excerpt: To determine the thermodynamic parameters accompanying the interaction, we performed an ITC analysis (Fig. 2B, Table 2).
To further dissect how molecular recognition occurs, we evaluated the contribution of individual residues of BA8 to the recognition of the sulfated peptide. We analyzed the crystal structure using the PDB PISA server, and we conducted mutation analyses in which the residues predicted to form hydrogen bonds or located at the interface were mutated to alanine (Fig. 3B).
The ITC experiments were performed using a MicroCal PEAQ-ITC (Malvern Panalytical, Malvern, UK). The BA8 Fab fragment antibody, sufficiently dialyzed in PBS, was adjusted to 10 μM for the cells, and the CCR5 N-terminal peptide, dissolved in the dialysate, was adjusted to 100 μM for the syringe. The first injection of 0.5 μl (omitted from the analysis) was followed by 19 injections of 2 μl with 120 s intervals at a constant temperature of 25 °C. The titration syringe was continuously stirred at 750 rpm.
The baselines were smoothly adjusted for the step after each titration saturated and fitted as one set of sites binding in MicroCal PEAQ-ITC Analysis Software (Malvern Panalytical, Malvern, UK).

[2] = test system: YU2 (CCR5 tropic strain) strain in TZM-bl cells; experiment: Pseudoviral assay (single-round viral infective assay) in TZM-bl cells; assay type: cell-based, HIV; conditions: 48 h post-infection, luciferase read-out, BA8 up to 50 μg/ml (approximately 350 nM)
Protocol: Subsequently, we conducted a pseudoviral test using TZM-bl cells.
The anti-HIV activity of BA8, isotype control antibody, and Maraviroc (Sigma-Aldrich) in a single-round viral infective assay against the YU2 (CCR5 tropic strain) strain in TZM-bl cells. At 48 h post-infection, cells were lysed, and relative light units were measured using a Steady-Glo luciferase assay system and GloMax Discover microplate reader (Promega).

[3] = test system: sulfated CCR5 on HEK293 cells transfected with CCR5 + TPST1 + TPST2 (C12); experiment: Flow cytometry binding to C12 cells; assay type: cell-based; conditions: BA8 full-length IgG, median fluorescence intensity vs concentration, sigmoid fit, read-out: half-maximal binding concentration (BC50)
Excerpt: (§1) We prepared model cells with transient overexpression to examine whether BA8 can recognize sulfated full-length CCR5. As referred in the Introduction section, previous research has shown that protein tyrosine sulfotransferases (TPSTs) are responsible for tyrosine sulfation ([10], [11], [12]). Those two isoforms of TPST (TPST1 and TPST2) and CCR5 genes were transiently transfected in the following five combinations to HEK293 cells: Negative Control (NC); CCR5 (C); CCR5 + TPST1 (C1); CCR5 + TPST2 (C2); and CCR5 + TPST1 + TPST2 (C12). Each protein contained the following tag sequences at the C-terminus: CCR5 – FLAG, TPST1 – HA, and TPST2 – Myc. The overexpression of each protein was confirmed by western blotting using tag antibodies (Fig. 5, A and B).
(§2) We conducted flow cytometry using these cells to confirm that BA8 can recognize sulfated CCR5 expressed on the cell surface (Fig. 5D).
(§3) To quantitatively evaluate the binding ability of BA8 to C2 and C12 cells, we plotted the median fluorescence intensity of antibody binding against BA8 concentration (Fig. 5E). An increase in the signal with increasing antibody concentration was confirmed, and the binding activity was quantitatively evaluated by fitting with a sigmoid function.
(§4) HEK293 cells stored in liquid nitrogen were initiated into the culture by thawing. […]

[4] = test system: sulfated CCR5 on HEK293 cells transfected with CCR5 + TPST2 (C2); experiment: Flow cytometry binding to C2 cells; assay type: cell-based
Excerpt: as §1, §2, §3, §4

[5] = test system: endogenous CCR5 expressed on TZM-bl; experiment: Flow cytometry binding to TZM-bl cells; assay type: cell-based; conditions: BA8 full-length IgG, read-out: BC50 (the source's name)
Protocol: Cells were aliquoted into 96 Well Conical (V) Bottom Plates (ThermoFisher Scientific) at 50,000 cells per sample and fixed with 2% paraformaldehyde at 4 °C for 30 min. After a PBS wash, 50 μl of goat anti-rabbit IgG Alexa 488 (Invitrogen) diluted 1000-fold by PBS were added to the sample. After incubation at 4 °C for 30 min, PBS washed cells were diluted with PBS containing 2% fetal bovine serum, and flow cytometry was performed using a FACS Canto system (BD Biosciences).

B1: BA8: rabbit antibody clone from phage display that specifically recognizes the sulfated N-terminal peptide of CCR5 (antibody, V domains shown)
VH: QSLEESGGGLFKPTDTLTLTCTVSGFSLSSYSIRWVRQAPGNGLEWIGAIGSGGNAYYTSWAKSRSTITRNTNENTVTLKMTSLTVADTATYFCARGGINFGIWGPGTLVTVSS
VL: AAVLTQTPSPVSAAVGSTVTINCQSSQSVYSKNWLSWFQQKPGQPPKQLIYSASTLDSGVPSRFSGSGSGTQFTLTISGVQCDDAATYYCQGTYGDASAFGGGTEVVVK
ΔH [1]: -28.7 kcal/mol
inhibition of HIV infection, in words [2]: did not significantly inhibit the infection; also recorded: did not show inhibitory activity
EC50 [3]: 3.71 nM
EC50 ([4]; C2 cells, BA8 full-length IgG, median fluorescence intensity vs concentration, sigmoid fit, read-out: half-maximal binding concentration (BC50)): 3.64 nM
EC50 ([4]; HEK293 overexpression system, C2 or C12 not specified, read-out: BC50 in overexpression system using HEK293 cells (approximate, discussion)): ~3 nM
EC50 [5]: 49 nM and ~50 nM

Reference: PMC11849073, “Specific recognition mechanism of an antibody to sulfated tyrosine and its potential use in biological research” (The Journal of Biological Chemistry, 2025)
